The source of these data is US20260159607A1.

Test [1] concerns the target human DCLK1-CAR (on transduced T cells). The test can be described thus: flow cytometry of CAR-transduced T cells stained with biotinylated DCLK1 protein (FL2-H), gate 'stained'; controls: T cells 3.19% (small print 3.18%), mock 3.17%. For orientation: Flow cytometry measures light scatter and fluorescence of single cells or particles in a stream.
Test [2] concerns the target mouse DCLK1-CAR (on transduced T cells). Described as above.

Take “Biotin-labeled DCLK1 (from UniProt O15075 1-740)”: the values for the % stained in test [1] and in test [2] were 2.73% and 11.6%, respectively.
